Source: US11994512B2, “Single-cell genomic methods to generate ex vivo cell systems that recapitulate in vivo biology with improved fidelity” (Massachusetts Institute of Technology, priority 2018, dated 2024)

B1: Q99LZ3 (protein, UniProt Q99LZ3 1-223, looked up)
chain: MTEVLDLHGQDSDGGSEEMVLTPAELIEKLEQAWMNEKFAPELLESKAEIVECVMEQLEHMEENLRRAKKGDLKVSIHRMEMERIRYVLSSYLRCRLMKIEKFFPHILEKEKVRSEGEPSSLSPEEFVFAKEYMDHTETHFKNVALKHMPPNLQKVDLLRAVPKPDLDSYVFLRVKERQENILVEPEADEQRDYVIDLEVGSQHLIRYKTIAPLVASGAVQLI
modifications: full-length
B2: Q99LD8 (protein, UniProt Q99LD8 1-285, looked up)
chain: MGTPGEGLGRCSHALIRGVPESLASGEGAGAGLPALDLAKAQREHGVLGGKLRQRLGLQLLELPPEESLPLGPLLGDTAVIQGDTALITRPWSPARRPEVDGVRKALQDLGLRIVEMGDENATLDGTDVLFTGREFFVGLSKWTNHRGAEIVADTFRDFAVSTVPVSGSSHLRGLCGMGGPRTVVAGSSEAAQKAVRAMAALTDHPYASLTLPDDAASDCLFLRPGLPGATPFLLHRGGGDLPNSQEALQKLSDVTLVPVSCSELEKAGAGLSSLCLVLSTRPHC
modifications: full-length
B3: Q99PG0 (protein, UniProt Q99PG0 1-398, looked up)
chain: MGKTISLLISVVLVAYYLYIPLPDAIEEPWKVVWETAFVKIGTDLASFGELLGISHFMETIQLLMSFQEVPPTSDEHVTVMETAFDSVPVRIYIPKRKSMALRRGLFYIHGGGWCLGSAAHFSYDTLSRWTAHKLDAVVVSTDYGLAPKHHFPRQFEDVYRSLRWFLQEDVLEKYGVDPRRVGVSGDSAGGNLAAAVTQQLIQDPDVKIKLKVQALIYPALQALDTNVPSQQEGSHFPVLTRSLMVRFWSEYFTTDRGLEKAMLLNQHVPMESSHLLQFVNWSSLLPERYKKSPVYKNPTPGSSELAQKYPGFIDVKACPLLANDNILHHLPKTYIITCQYDVLRDDGLMYVKRLQNVGVHVTHHHVEDGFHGTFSFPGLKLSERMKNQYLSWLIKNL
modifications: full-length
B4: Q99M01 (protein, UniProt Q99M01 1-451, looked up)
chain: MVCLALVRAAYEHIYLVRKVSHACRCHQHRAWSSKPAASQSAVQGAPGSVLEILGKSYPQDDHTNLTQKVLSKVGRNLHNQKFHPLWLIKERVKEHFYQQYMVRSRTPLFSVYDQLPPVVTTWQNFDSLLIPADHPSRKKGDNYYLNRAHMLRAHTSAHQWDLLHAGLNAFLVVGDVYRRDQIDCQHYPVFHQLEGVRLFSKHELFAGVKDGESLQLFEEGSRSAHKQETHTMEAVKLVEFDLKQVLTRLVTHLFGDGLEVRWVDCYFPFTHPSFEMEINFRGEWLEVLGCGVMEQQLVNSAGAQDRIGWAFGLGLERLAMVLYDIPDIRLFWSEDERFLKQFLLSDINQSVKFQPLSKYPAVFNDISFWLPSENYTENDFYDIVRTVGGDLVEKVDLIDKFEHPKTHRTSHCYRITYRHMERTLSQREVGNVHQAVQEAAVQLLGVEGRF
modifications: full-length
B5: Q99M54 (protein, UniProt Q99M54 1-266, looked up)
chain: MGSTQSVSGTPARPLPRNKQVARVADPRSPSAGIQRTPIQVESSPQPSLPAEQLNGLKQAQDPDPRSPTLGIARTPMKISGPDPQCSLVKELSEVLETEASESISSPELALPRETPLFYDLDLSSDPQLSPEDQLLPWSQAELDPKQVFTKEEAKQSAETIAASQNSDKPSRDPETPQSSGSKRSRRKANSKVLGRSPLTILQDDNSPGTLTLRQGKRPSALSENVKDLKEGVVLGTGRFLKAGGGAREPNQDHDKENQHFALLES
modifications: full-length

System: intracellular proteome of ENR+CD and ENR organoids
Assay: LC-MS/MS TMT proteomics of ENR+CD versus ENR organoids
Assay type: cell-based, C57BL/6 mice
Details: for Average logFC: ENR+CD versus ENR organoids, sample pairs in aggregate (n=4, 2 technical replicates from two biological donors); for M1-1 Log2 Median Normalized / M1-2 Log2 Median Normalized / M2-1 Log2 Median Normalized / M2-2 Log2 Median Normalized: protein abundance ratio ENR+CD versus ENR organoids, LC-MS/MS TMT proteomics; for M1-1 Log2 Median Normalized: sample pair M1-1; for M1-2 Log2 Median Normalized: sample pair M1-2; for M2-1 Log2 Median Normalized: sample pair M2-1; for M2-2 Log2 Median Normalized: sample pair M2-2; for change: up = enriched in ENR+CD, down = enriched in ENR, FDR<0.05 and log fold change cut-off

Molecule | Average logFC | M1-1 Log2 Median Normalized | M1-2 Log2 Median Normalized | M2-1 Log2 Median Normalized | M2-2 Log2 Median Normalized | change
B1 | −1.212 | −1.61 | −1.013 | −0.7435 | −1.481 | down
B2 | 1.289 | 1.314 | 1.577 | 1.1265 | 1.14 | up
B3 |  | −1.606 | −1.392 | −2.1105 | −1.558 | down
B4 | −1.171 | −0.869 | −0.578 | −1.7495 | −1.486 | down
B5 |  | −1.383 | −1.488 | −0.4185 | −1.548 | down
